In patent publication US20180256645A1:

Molecular target: murine/mouse full length CXCR6 (chemokine receptor 6), expressed on transduced murine CD8+ T cells (murine/mouse) (UniProt Q9EQ16)
Assay: cell-based or functional assay

Chain of UniProt Q9EQ16 (Q9EQ16 1-350): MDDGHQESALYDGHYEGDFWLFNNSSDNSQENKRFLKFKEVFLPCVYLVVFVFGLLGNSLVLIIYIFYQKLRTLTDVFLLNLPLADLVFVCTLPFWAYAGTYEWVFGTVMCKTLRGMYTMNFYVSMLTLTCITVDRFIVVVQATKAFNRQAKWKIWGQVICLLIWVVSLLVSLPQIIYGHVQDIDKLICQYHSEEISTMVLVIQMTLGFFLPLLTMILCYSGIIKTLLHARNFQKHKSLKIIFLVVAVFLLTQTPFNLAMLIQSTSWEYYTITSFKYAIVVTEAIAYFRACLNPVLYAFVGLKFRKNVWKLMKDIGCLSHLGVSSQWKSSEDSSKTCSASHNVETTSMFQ

- internalisation and recycling of CXCR6 (live confocal fluorescence microscopy): 30 min
Substance: recombinant CXCL16 (SEQ ID NO: 9) (Peprotech, Hamburg) (from UniProt Q8BSU2 27-114) (ligand)
